Measured values from the domain aggregation screens of Martell et al. (2025).

Assay: soluble fraction after stress (log2 fold change); higher = more stays soluble; pooled small domains, quantitative proteomics
Conditions: stress: 75 degC
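Note: 20 min heating vs room temperature control held 20 min.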

Sequence | soluble fraction (log2)
HMKTPIEFGSVYNDPVRYVIGMSIKSAESINQAIYDMMKIFGDENNMNKFDSLPDEQAVLDMVNSF | 0.0725
HMKTRIQDLRKELGVTQSELADAVDVTRQTIISLEGGRYKASLVLAHKLAQFFHVTIEELFIFD | -2.32
HMKTRNISGNHEAVWQAVRSRTQAGHPTTRAVIMDDLKAQGLNTQKFSRWLKKLVDDGSVYMDGDTIIMGK | -0.306
HMKTRTVVLKSAGGNKIAVIKIIKEITGLGLVEAKAVADNGGNIKENIPAEEAEAIKTQLTEAGAEVEL | -0.664
HMKTRYPNVYQDEKGKFFYQIFIGTDTNGRKKLKKGRRDALGHPFSSAYQASKEAKRVQALYANVS | -2.02
HMKTSTGSAMYLTLDLAEKYAGQAFTLVHKKADGTFEYLYATADVDGKVKFGPVYELSPFMLVKGQL | -1.66
HMKTSVGSKMMVMANNLSIRKSANLLSEKLADLSKGDMVEYISSTNGWNKVRYNGYVGYVSSYYLKDTGEV | -2.21
HMKTTKDSVFEYIQKELMTNEEYKQGINTNVIAQHFGLQRSNISTILNELVKEDRLEKTNTRPVLYFLPQ | -0.208
HMKTTKRERARAKLIQLLENEDRPAKEIYAGLGDIGVGSRTVEKVKKELQVTTYRSGGSWYWSLPKP | -0.525
HMKTVKPSQIPYSEFLKLVETDKINDVSMVGRNIIGHLDDGSKFKTYTPPNDPTLIEKLSSHNIVINAAPE | 0.0923
HMKTVLDSLLRILDSKELDIVVLRHIVGLTLTEIAKEKDMKKGTVFWMYNRAVKKLRLESERMGL | -2.13
HMKTVPNVEGEKDGTAQSAIESAGLKVGKVTYQYDDNTSKGLVISQSVKGGEKVKPNTAIDLVVSNGPK | -0.117
HMKTYSEAQLKIALESLIENGKKQGYLTFQEINEILPDGIINTQDLKVIISILKETGIVVAKEKPEINIDV | 0.0761
HMKVEFTPAYLKKFKANKNAWKFYEAQTNTYKKQSAWYVISAKQEETRLRRLDLLIYDSENGIHIKPLRR | -2.74
HMKVFTEDEMLEKIKEYLSTNSYINRRVMETQFGLRQNIALKWLKHFTEIGVLRKEGERNSPIYFLNN | -0.356
HMKVKIFNGMKLVTNSTGLTVDGKPAALDESNADAKTYSQGLYVFIVYQSGKIAVMQDGKFLGYA | -3.34
HMKVLNVLESEIVRLFKQGQQKDNIRDNIYKTHGQHYNNKKSFNVVFGRKWNSLLEQGFLES | -1.23
HMKVRDTQYIIEAAISKNVIRKSKNIYYYGTDIIGRSLEDAIASLNDKKNQDIKMTILQEIES | -2.14
HMKVSKNKIVKGMGFHHVALKAVDFDASFKFYTEGLGMKFYTSWGEGNGKIAMLDLGDGGILELFA | 0.0409
HMKVTGITDDILQRLKQQKGYLMLSDKSSPDEIYAAFGVSKKVFKQAIGTLFKQRQIIIEEQGIRLAN | -1.3
HMKVTQDIIFKRNGEEIKSKVLEITPDLIIYIDYSRADNIAREINISEVNMIIYKNGTSEIFSRPEE | -1.69
HMKVTTGIDGLIGEEGVALSDFSGKGKIMVHGEIWNAEFSGEVKKGEVLLVEKANGMTLITRKKN | ≥ 1.04
HMKYKWLAGQLRRELLENGGKKGYKLPTELELARRYQLSRQTVRRALQLLEEEGLILRRQGSGAYATGKPP | -0.729
HMKYLREEDYLPIGSIIRLDDRNFRVDHVNFMFKSVSLQDMDLTNSGQPIFRSESLPHIRELYEQQQNELV | -0.877
HMKYYIYQGLGDSGELTKIAEVTDVKTYTATGLEANTKYRFAVSAYNGLRESSKSNIITVTT | 0.0116
HMLADIGGRIADLRREVGLTQGELAEKADISVVHLSNIELGKKTPGLSTLIRIAEALDVATDWILQA | -1.38

Sequence | soluble fraction (log2)
HMLAFDKDDSGAVAEIILVLGRYWMDFSHKKYPAAEGVALRHKGLSHIFTVLRPYLSTPASELIGERLRR | -0.0618
HMLAGVDTLADRELEVFQMLGRGKSTKEIAQVLNLGESTVETYRARIKEKLQLRSAAELYLRAGQWVRDHG | -1.09
HMLAIKKGGIFAILGPNGSGKSTFSKVLAGHPAYTVVDGDIFFKGLSILDLEPEERSHLGIFLAFQ | -0.286
HMLAKRYLVYGSGSLNSAYPDTKNIAYGIDSGKGFFLVGILTENEASKLKLKGYYVIEDFPLDFH | -1.45
HMLAPLAEMRGDTLDRLEKAVLELFSSRDFHEVSLQDVARRANVSLQTIYKYFGSKEALVYTMLDTLLGR | -0.416
HMLAQVSDEGPIRAMVEAVMARSTQQLEDYKNGKVKLRQYFFGEVMKAAKGKANPTVINKLLDEMLPETL | -0.314
HMLAQYPGQVFSKEQIYNQVWKEPYYGVEDNVMSLIRRIRKKIEPDPSRPIYILTVWGIGYKFNN | 0.0812
HMLARFSGIALNTWTQADVERTFGPPMLVERVARFDGDIWTYRFMDDYEPRMAHIHIDRAGTVRQLVF | -2.86
HMLAVEKIEFVGNERIAAADLESALSALYDRPMTTISDDEIAKLLSGFSLIETFTSQAEPPHTLRVNIRE | 0.083
HMLDEKFLSELMLALLRNHRRGLRAEVLLHKVRSNMELDGYKSLLVGVGRMEMWELAREIIDFVKAEG | -4.4
HMLDGFEVGMTVMRKPGTETGFTGWPPFADKDEFPVIERIDTSDSTLLLRFNDTSWWINASLVEPSDV | -2.19
HMLDIPEVGQAVQVRGRLGTVFSVAPYDGREGRLHLVTVDYLDDARPPENDEILWEIESGARILG | -0.698
HMLDLNEVEFYAIENQLKENLKIDSKRFYELVPLIKGYQEDDIIQVLRWLIDNNRIIRHKDESLTWHS | -1.68
HMLDLSEEEQKIVSILEKQGNLQINSLVVEADIPVHKINAILFELEMKGVVRVLALSLIHISEP | 0.149
HMLDPVLQREKDESFTDYHIRLFKNKDTYHIDTKTIATLLNKDQGTNYDESKWRKDFKQYERWNDYIMSKN | 0.116
HMLDPYNVLGVPRDAGMDEIKKAYRKLSRTYHPDANIDNPNKAQAEEKFKQIQEAYQQIVKERTE | -0.0272
HMLDQAVPVFETPKYAVSYIQNRLVEMKAASPEEAASRFYESISESERRGLFEALLIKEAEES | 0.0105
HMLDQGTQSRYQIMDGVRALITGDWSSHGAGLVRELSQEVARTSGLTATSERTFFVPFSALS | 0.00593
HMLDSDARRRGLIEYLSLNGYATMRQLAGEFDVSINTIQRDITYLARYYPLETAYGRYGGGVYFEQNWQ | -1.44
HMLDSGNPILPYKLSLLANVDIRTVRNAISAGELVAFKSEFDGEVYVENGSARRWLHGRRGFKPTLK | -2.56
HMLDSNILTLIKELKIRHHFTATQTHQLEKVIQQAHALGLDNSEIRSLANSSPSAKSLINDLNQKLEPLRL | -1.44
HMLDTELEANLRSQRDQKLVEELDPIVTNPLRWAELTSDKQTEWTQYRTDLLNVPQQSGFPTNVTWPEKP | 0.216
HMLDVFSAEQVADVLSVSKRNLETWANNGKLIPDFIHGEVALYSKKQLEQFEQFQRFFNSSWDAERLIQP | -1.54
HMLDVGDQLVKKLKDNDSLDFHFVNSKEANKGLKDGDYYMVITIPSNFSKNATTLLDKNPKKMVLNYTTNP | -0.0273
HMLEAKQIQDNWESLIKLIEDNFTGERKENLLKMYTHFQDRMMFAPASSKEHFHNAFPGGYVEHVL | -0.369
HMLEDIDNSIKKEIILEHYDKMLEFHGDYGAIIFRKLLHAYSKGYTGANEFRDLVNQISDKNIMRDLIESF | -0.947

Sequence | soluble fraction (log2)
HMLEEIIDVKRFLVENVRGVSEKTALAILSEFGDKTMDVLRNSPNELYRIKGMSGKRIEVIKDAIANATAS | -0.568
HMLEINTIIGNNLKKIRQEKKLTLDELAGITGVSKGMLSQIEKGTTNPTINTIWKISNGLNVPYTYLLEDD | -0.513
HMLENIVFTNKFKNKRLDVLLVDMKLVSSRQKAVSLIMRGNVFVEEERADKPGKIIKLNQTISLKK | -2.78
HMLERPLKLKSHYVSAINEKVAVQFQAGEERKSIMGTLTEVNQDTIVIDDRGSVTEIPFKSIIRAKTVF | -0.621
HMLESPVEAIIRQIKQLITNGKLKPGDRLPAERLLAENFGVGRGYVREAIMKLEFFGLLKTSPQSGTYVAG | -1.39
HMLETIDIFKVTGGEPFLSKDFLEILDLAIEKDLAKNITLMITTNASKFVKKILDKFIHFKRVEFTVS | 0.407
HMLFGKKYLGKVPNDASGRISLWNDIVKHHQELQNIRAIENFTSDNVTVAQGDTKKAVVVTDYVT | -0.286
HMLFQGDTPAENIILEILSKNGTTASDSIIKQSGLSVSDFNQAATMLEIKGLISNNGGNIWSL | -0.0591
HMLFVKLSDAQRSMFGAKLARDARIQSEYAQKLPSENYEVFGKALADMLLDETHFKTFYPLLVEYGYTQPK | -1.32
HMLGDIYISIPRAKLQAEEYGHSFKRELAFLAVHGFYHLLGYDHQTKEEEEVMFGKQEEVLAEFDIKR | -0.0616
HMLGKNEAKEYKVAYGDIGKMPALIMGLVPLPKPPVVDERLRTLYVTATPEQHREIEAIMNRI | 0.236
HMLGKSNAERQLDLILGAIERSITGVSRSKLMQAYHLDSRGATAAFETLEQRGLITRSKSGRTELLIPTRV | -1.78
HMLGWEDVIQFEEVKGYGQHIWRDGNHLYYVTEEGGIAPQRVVYELPNELFALLESGERTQLEILSKLQ | -2.51
HMLHNEFINDRIQSAINNLSEHFKIVIILRDIQELSYEEISNIVEVPLGTIKSRINRARIQLQAELLDL | 0.215
HMLILDTDGRYVIKRGDSLSEILEKIANGSNINLNLLKRAFVTANPKAFKRANPNWMYANAR | -0.249
HMLIPTISVTKEGQLRFENIPVSWEELGTRLRDVSDLDKIKIYADAESDALTISEIMKTAANVGIVQFVLV | -1.03
HMLIRKGVVSFFNDAKGYGFIKDLVTQESAFVHVNSLSETIKEHDKVTFEVEMGHKGANAVNVKLVK | -1.09
HMLIVLKPNVSQEEIDHIVDKIRSLSLEPHVSTGVQRTIITVIGDEDVIREQPLEALAGVESVKSILKP | -0.358
HMLKGTVKWFNESKGFGFIEQEEGKDVFVHYSAITGSGFKTLNEGDKVQFEIVDGPKGPAAANVSK | 0.036
HMLKKGDQVYIISGKDKGKLGVVSQIVSEERILVDGINLAKKHVKPNPNKNETGGVVEKEMPIHASNVMI | 0.243
HMLKLTDRQKVILSILMSDGEKTASWIASQLGVGLRSVQLDLSYLRNNGFIKKASKSTHSAWIVLKK | -4.1
HMLKPIHKDWSPNGDAKEILLKAGITEEFIQKELPEFIMYWSERNEESDIWNSKFIAHIRRRWGRFS | -1.64
HMLKPVVLLGARGLTDAVEKEVERALDEHGLIKIHVPSDDREERDEIYTTLADKLNAARIQAIGKMLVLW | -0.0344
HMLKSGSAVAQARDVILEKGVPVHINEILDALGKGDTREAKASLTSSLAAYVRRGEIFTRPAPNTFGLVEL | -0.592
